Results published in doi:10.1101/2025.06.05.658000 (2025).
Where two headings read alike, the source gives them in different places. No end group written: not given here. *: point of attachment. Biotin = O=C1N[C@H]2[C@H](CS[C@H]2CCCCC(=O)*)N1; Ahx = NCCCCCC(=O)O

Experiments:
Test in all cases: ELISA
[1] = molecular target: T1, HLA-DR (DRA1*01:01 / DRB1*12:01), soluble knob-into-hole Fc heterodimer (human)
[2] = molecular target: T2, HLA-DR (DRA1*01:01 / DRB1*07:01), soluble knob-into-hole Fc heterodimer (human)
[3] = molecular target: T2, HLA-DR (DRA1*01:01 / DRB1*07:01), …; remark: listed apart in the source
[4] = molecular target: HLA-DR (DRA1*01:01 / DRB1*04:05), soluble knob-into-hole Fc heterodimer (human)
[5] = molecular target: HLA-DR (DRA1*01:01 / DRB1*10:01), soluble knob-into-hole Fc heterodimer (human)
[6] = molecular target: HLA-DR (DRA1*01:01 / DRB1*04:01), soluble knob-into-hole Fc heterodimer (human)
[7] = molecular target: HLA-DR (DRA1*01:01 / DRB1*01:01), soluble knob-into-hole Fc heterodimer (human)
[8] = molecular target: HLA-DR (DRA1*01:01 / DRB1*15:01), soluble knob-into-hole Fc heterodimer (human)
[9] = molecular target: HLA-DR (DRA1*01:01 / DRB1*15:02), soluble knob-into-hole Fc heterodimer (human)
[10] = molecular target: HLA-DR (DRA1*01:01 / DRB1*14:54), soluble knob-into-hole Fc heterodimer (human)
[11] = molecular target: T1, HLA-DR (DRA1*01:01 / DRB1*12:01), …; remark: listed apart in the source
[12] = molecular target: HLA-DR (DRA1*01:01 / DRB1*11:01), soluble knob-into-hole Fc heterodimer (human)
[13] = molecular target: HLA-DR (DRA1*01:01 / DRB1*04:07), soluble knob-into-hole Fc heterodimer (human)
[14] = molecular target: HLA-DR (DRA1*01:01 / DRB1*16:02), soluble knob-into-hole Fc heterodimer (human)
[15] = molecular target: HLA-DR (DRA1*01:01 / DRB1*04:04), soluble knob-into-hole Fc heterodimer (human)
[16] = molecular target: HLA-DR (DRA1*01:01 / DRB1*13:01), soluble knob-into-hole Fc heterodimer (human)
[17] = molecular target: HLA-DR (DRA1*01:01 / DRB1*01:02), soluble knob-into-hole Fc heterodimer (human)
[18] = molecular target: HLA-DR (DRA1*01:01 / DRB1*04:03), soluble knob-into-hole Fc heterodimer (human)
[19] = molecular target: HLA-DR (DRA1*01:01 / DRB1*09:01), soluble knob-into-hole Fc heterodimer (human)
[20] = molecular target: HLA-DR (DRA1*01:01 / DRB1*14:01), soluble knob-into-hole Fc heterodimer (human)
[21] = molecular target: HLA-DR (DRA1*01:01 / DRB1*15:03), soluble knob-into-hole Fc heterodimer (human)
[22] = molecular target: HLA-DR (DRA1*01:01 / DRB1*04:06), soluble knob-into-hole Fc heterodimer (human)
[23] = molecular target: HLA-DR (DRA1*01:01 / DRB1*11:04), soluble knob-into-hole Fc heterodimer (human)
[24] = molecular target: HLA-DR (DRA1*01:01 / DRB1*03:01), soluble knob-into-hole Fc heterodimer (human)
[25] = molecular target: HLA-DR (DRA1*01:01 / DRB1*12:02), soluble knob-into-hole Fc heterodimer (human)
[26] = molecular target: HLA-DR (DRA1*01:01 / DRB1*13:02), soluble knob-into-hole Fc heterodimer (human)

GNYNYLYRLFRKSNL [SARS-CoV-2 RBD peptide RBD447-461, wildtype strain] gave a Kd [1] of 229 nM and a Kd [2] of 163 nM.

For ADYNYKLPDDFTGCV [SARS-CoV-2 RBD peptide RBD419-433], the Kd [1] was greater than 10000 nM and the Kd [2] was greater than 10000 nM.

In the case of TESIVRFPNITNLCP [SARS-CoV-2 RBD peptide RBD323-337], the Kd [1] is reported as 4930 nM and the Kd [2] is reported as 435 nM.

With {Biotin-Ahx}-KPVSKMRMATPLLMQALPM the Kd [3] was 4.09 nM, the Kd [4] was 14.9 nM and the Kd [5] was 1.27 nM. The Kd [6] was 2.35 nM, the Kd [7] was 1.83 nM and the Kd [8] was 2.13 nM. For the same binder, the Kd [9] was 8.75 nM.

For VVLSFELLHAPATVC [SARS-CoV-2 RBD peptide RBD511-525], the Kd [1] was 631 nM and the Kd [2] was 263 nM.

KPVSKMRMATPLLMQALPM (also: biotin-labeled) was tested, and the Kd [10] was 3.35 nM, the Kd [11] was 22.9 nM and the Kd [12] was 12 nM. It also gave a Kd [13] of 2.76 nM, a Kd [14] of 8.67 nM and a Kd [15] of 2.7 nM. The Kd [16] was 315 nM, the Kd [17] was 1.78 nM and the Kd [18] was 2.32 nM. The Kd [19] was 0.576 nM, the Kd [20] was 9.17 nM and the Kd [21] was 5.31 nM. For the same binder, the Kd [22] was 2.63 nM, the Kd [23] was 4.54 nM and the Kd [24] was 15.1 nM. It also gave a Kd [25] of 1.27 nM and a Kd [26] of 4130 nM.

Binder VEGFNCYFPLQSYGF [SARS-CoV-2 RBD peptide RBD483-497] has a Kd [1] of 439 nM and a Kd [2] of 173 nM.
